Laboratory results published in patent US20230407367, “INTRINSICALLY DISORDERED PROTEINS FOR EXTRACTION OF NUCLEIC ACIDS” (published 2023).

Tests used:
[1] = target: T1, E3 ELP [(VPGXG)10-GKG]8 (synthetic construct); experiment: coacervate partitioning at 55 C, no added NaCl, 100 mM sodium phosphate pH 7.0; 100 mM NaCl leaves much more DNA in dilute phase; settings: label: 5'-Cy3
T1 chain: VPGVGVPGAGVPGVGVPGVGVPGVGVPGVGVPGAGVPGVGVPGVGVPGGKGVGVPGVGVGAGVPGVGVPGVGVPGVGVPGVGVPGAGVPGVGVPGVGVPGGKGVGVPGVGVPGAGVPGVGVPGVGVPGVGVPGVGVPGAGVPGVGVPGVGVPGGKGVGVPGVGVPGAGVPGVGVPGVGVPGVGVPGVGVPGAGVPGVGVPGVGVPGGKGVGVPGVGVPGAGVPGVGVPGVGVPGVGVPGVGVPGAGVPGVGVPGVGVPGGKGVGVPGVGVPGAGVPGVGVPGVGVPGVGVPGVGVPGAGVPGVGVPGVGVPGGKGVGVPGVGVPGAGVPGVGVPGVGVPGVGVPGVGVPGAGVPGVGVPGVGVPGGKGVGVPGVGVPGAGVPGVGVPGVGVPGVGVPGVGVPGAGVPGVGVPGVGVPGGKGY
Text: Across all t=0 samples at room temperature (T<Tt) no E3 condensates are observed (FIG. 3, A1 and D1) and all solution components are miscible and evenly distributed throughout the droplet volume (FIG. 3, A2, D2, A3 and D3). The incipient stages of thermally triggered E3 phase transition occur simultaneously throughout droplet volumes, corroborating demixing through spinodal decomposition for both +NaCl and −NaCl samples (FIG. 3, B1 and E1). […] Note that the recruitment of ssDNA-Cy3 into the E3 rich condensates is E3 concentration dependent. By contrast, addition of NaCl results in electrostatic shielding, partitioning more ssDNA-Cy3 in the solvent-rich phase (FIG. 3, B2 and C2). The combined E3 phase behavior and ssDNA-Cy3 partitioning for −NaCl and +NaCl is further evidenced by inspection of the merged brightfield and fluorescence microscopy images of FIG. 3, panels A3-F3.
To image the process of temperature-mediated E3 coacervation and interaction with DNA-Cy3, an Olympus IX83 fluorescence microscope (Olympus Life Science Technology Division, Center Valley, PA) was equipped with a Physitemp cooling and heating stage (TS4-MP/ER/PTU, Clifton, NJ) fitted with a temperature controller. Microfluidic droplets were generated using previously described methods and droplet generator. […]

[2] = target: T2, H-20 His-ELP (synthetic construct); experiment: EMSA; pH 6, room temperature, 0.1-100 uM; weaker than H-24
T2 chain: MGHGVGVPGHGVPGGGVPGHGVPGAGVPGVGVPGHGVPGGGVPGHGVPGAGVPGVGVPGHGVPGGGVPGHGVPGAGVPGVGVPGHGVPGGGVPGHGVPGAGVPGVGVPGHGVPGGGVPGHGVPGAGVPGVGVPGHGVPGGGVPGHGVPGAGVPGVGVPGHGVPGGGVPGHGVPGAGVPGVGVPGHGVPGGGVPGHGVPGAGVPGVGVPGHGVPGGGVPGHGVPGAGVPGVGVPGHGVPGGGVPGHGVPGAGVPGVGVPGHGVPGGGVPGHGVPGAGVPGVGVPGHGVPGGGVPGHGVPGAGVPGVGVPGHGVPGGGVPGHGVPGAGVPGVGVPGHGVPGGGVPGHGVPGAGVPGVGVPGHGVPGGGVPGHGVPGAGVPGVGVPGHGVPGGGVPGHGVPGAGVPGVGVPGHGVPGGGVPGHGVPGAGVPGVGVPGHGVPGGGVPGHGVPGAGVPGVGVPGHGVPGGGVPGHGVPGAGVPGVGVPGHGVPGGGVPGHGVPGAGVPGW
Description: (§1) According to the prediction of His-ELP charge as a function of pH (FIG. 1l A), at pH 6, H-20 (SEQ. ID. NO. 8) is expected to have a charge of ≈+33 and H-24 (SEQ. ID. NO. 9) is expected to have a greater charge of ≈+39 as it has more histidines in its sequence. The primary association between His-ELPs and NAs is via electrostatic interactions; thus, the protein with greater charge is expected to have a more robust binding activity. Gel retardation assays were performed to analyze the binding activity of the His-ELPs (and another ELP with 8 cationic lysine charges, E3) with tRNA and ssDNA as a function of protein concentration at pH 6 (FIG. 12). Binding and gel electrophoresis were conducted at room temperature, below the Tt of each of the proteins, and for both tRNA and ssDNA, the degree of NA migration retardation was dependent on protein concentration (see FIG. 4).

[3] = target: T3, H-24 His-ELP (synthetic construct); experiment: EMSA; pH 6, room temperature, 0.1-100 uM
T3 chain: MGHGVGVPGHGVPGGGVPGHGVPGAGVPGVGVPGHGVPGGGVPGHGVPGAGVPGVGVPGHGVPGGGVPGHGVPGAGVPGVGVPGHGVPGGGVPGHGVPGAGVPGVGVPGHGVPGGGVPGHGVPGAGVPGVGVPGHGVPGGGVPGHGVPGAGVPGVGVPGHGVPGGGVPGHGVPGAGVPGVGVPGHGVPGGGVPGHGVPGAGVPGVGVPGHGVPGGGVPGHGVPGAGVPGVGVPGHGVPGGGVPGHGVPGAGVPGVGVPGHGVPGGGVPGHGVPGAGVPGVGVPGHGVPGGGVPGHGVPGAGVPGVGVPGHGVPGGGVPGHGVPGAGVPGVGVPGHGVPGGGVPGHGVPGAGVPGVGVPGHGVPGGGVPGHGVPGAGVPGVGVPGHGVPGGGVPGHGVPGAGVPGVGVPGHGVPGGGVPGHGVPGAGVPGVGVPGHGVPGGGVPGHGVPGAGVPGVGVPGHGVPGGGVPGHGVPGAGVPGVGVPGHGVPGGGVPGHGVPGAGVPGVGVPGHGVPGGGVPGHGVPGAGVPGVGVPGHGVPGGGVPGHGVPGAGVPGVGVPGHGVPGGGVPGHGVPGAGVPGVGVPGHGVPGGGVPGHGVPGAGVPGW
Description: as §1

B1: Cy3-ssDNA (DNA-Cy3) (ssDNA)
DNA: TTTTTCCTAGAGAGTAGAGCCTGCTTCG
[1]
  binding result: binds

B2: ssDNA 28 nt (ssDNA)
DNA: TTTTTCCTAGAGAGTAGAGCCTGCTTCG
[2]
  binding result: binds
[3]
  binding result: binds
